Source: patent publication US20180344736A1 (ROCHESTER, published 2018)
One block for each binder: values may come before it.

Legend:
Parkin (endogenous) = target: T1, Parkin (endogenous) (human, UniProt O60260 1-465); assay: not told (data not shown)
T1 construct: Endogenous protein immunoprecipitated from cell lysates; also called Endogenous Parkin

Cdh1 = target: T2, Cdh1 (human, UniProt Q9UM11 1-496, limits assumed); assay: IP-immunoblot of transfected Parkin domain constructs, mitotic cells (FIG. 10A)
T2 construct: Protein in cell lysate, co-immunoprecipitation
Description: Cells were transfected with the indicated plasmids, and mitotic cells were collected for immunoprecipitation (IP)-immunoblot analysis (right).

Cdc20 = target: T3, Cdc20 (human, UniProt Q12834 1-499); assay: IP-immunoblot of transfected cells with or without nocodazole (FIG. 9K)
T3 construct: Protein in cell lysate, co-immunoprecipitation
T3 sequence (Q12834 whole entry): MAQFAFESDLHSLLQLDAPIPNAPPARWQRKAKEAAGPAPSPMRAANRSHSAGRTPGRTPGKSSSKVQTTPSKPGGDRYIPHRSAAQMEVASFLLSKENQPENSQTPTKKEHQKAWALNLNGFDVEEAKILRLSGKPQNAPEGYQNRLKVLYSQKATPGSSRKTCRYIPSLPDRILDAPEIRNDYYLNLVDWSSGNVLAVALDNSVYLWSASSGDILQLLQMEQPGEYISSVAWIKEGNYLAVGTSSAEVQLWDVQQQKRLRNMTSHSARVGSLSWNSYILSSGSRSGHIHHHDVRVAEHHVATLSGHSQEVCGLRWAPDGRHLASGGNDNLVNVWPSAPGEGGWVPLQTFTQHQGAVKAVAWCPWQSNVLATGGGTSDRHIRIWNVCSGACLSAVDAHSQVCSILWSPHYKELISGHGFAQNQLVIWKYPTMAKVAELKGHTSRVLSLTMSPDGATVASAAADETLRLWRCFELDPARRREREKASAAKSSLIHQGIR
Protocol: (H) Cells were transfected with the indicated plasmids, and then treated with nocodazole. Cell lysates were then blotted with the indicated antibodies. […] (J and K) Cells were treated with chemical (J) or transfected with indicated constructs (K).

T2 sequence (Q9UM11 whole entry, the tested form may be a part): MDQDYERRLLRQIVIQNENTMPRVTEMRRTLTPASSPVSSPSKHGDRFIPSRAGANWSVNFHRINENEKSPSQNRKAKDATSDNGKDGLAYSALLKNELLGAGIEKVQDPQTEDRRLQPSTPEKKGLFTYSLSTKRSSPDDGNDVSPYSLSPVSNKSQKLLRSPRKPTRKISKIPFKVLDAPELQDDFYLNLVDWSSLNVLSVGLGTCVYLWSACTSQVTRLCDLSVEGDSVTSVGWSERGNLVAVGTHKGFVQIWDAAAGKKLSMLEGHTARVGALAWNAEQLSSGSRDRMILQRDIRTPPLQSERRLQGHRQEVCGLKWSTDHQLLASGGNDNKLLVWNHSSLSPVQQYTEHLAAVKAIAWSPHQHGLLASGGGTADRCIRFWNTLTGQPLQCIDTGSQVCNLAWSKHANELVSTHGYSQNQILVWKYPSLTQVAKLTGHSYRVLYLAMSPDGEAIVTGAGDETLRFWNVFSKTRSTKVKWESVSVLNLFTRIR

- binding result (Parkin (endogenous)): no binding
B1: UbcH10 (enzyme, UniProt O00762 2-179, looked up)
chain: ASQNRDPAATSVAAARKGAEPSGGAARGPVGKRLQQELMTLMMSGDKGISAFPESDNLFKWVGTIHGAAGTVYEDLRYKLSLEFPSGYPYNAPTVKFLTPCYHPNVDTQGNICLDILKEKWSALYDVRTILLSIQSLLGEPNIDSPLNTHAAELWKNPTAFKKYLQETYSKQVTSQEP
notes: also called the E2 for APC/C in mitosis

- binding result (Cdh1): no binding
B2: Parkin RING1 domain (other, UniProt O60260 238-293, looked up, not shown: small tags and cut ends)
chain: CITCTDVRSPVLVFQCNSRHVICLDCFHLYCVTRLNDRQFVHDPQLGYSLPCVAGC
notes: domain: RING1

- binding result (Cdc20): no binding
B3: Parkin S378A (enzyme, UniProt O60260 1-465, looked up, not shown: large carriers)
chain: MIVFVRFNSSHGFPVEVDSDTSIFQLKEVVAKRQGVPADQLRVIFAGKELRNDWTVQNCDLDQQSIVHIVQRPWRKGQEMNATGGDDPRNAAGGCEREPQSLTRVDLSSSVLPGDSVGLAVILHTDSRKDSPPAGSPAGRSIYNSFYVYCKGPCQRVQPGKLRVQCSTCRQATLTLTQGPSCWDDVLIPNRMSGECQSPHCPGTSAEFFFKCGAHPTSDKETSVALHLIATNSRNITCITCTDVRSPVLVFQCNSRHVICLDCFHLYCVTRLNDRQFVHDPQLGYSLPCVAGCPNSLIKELHHFRILGEEQYNRYQQYGAEECVLQMGGVLCPRPGCGAGLLPEPDQRKVTCEGGNGLGCGFAFCRECKEAYHEGECAAVFEASGTTTQAYRVDERAAEQARWEAASKETIKKTTKPCPRCHVPVEKNGGCMHMKCPQPQCRLEWCWNCGCEWNRVCMGDHWFDV
notes: Transfected construct, IP-immunoblot with or without nocodazole
